Target: T1, Cul5(N) (Homo sapiens, UniProt Q93034, L345D/V341R)
T1 construct: GST with 3C protease site (N, cleaved yes); made in house; host or cells: E. coli BL21(DE3), as for VifC/EloB/C
T1 sequence (Q93034 with tags, fused parts or gaps V341R/L345D): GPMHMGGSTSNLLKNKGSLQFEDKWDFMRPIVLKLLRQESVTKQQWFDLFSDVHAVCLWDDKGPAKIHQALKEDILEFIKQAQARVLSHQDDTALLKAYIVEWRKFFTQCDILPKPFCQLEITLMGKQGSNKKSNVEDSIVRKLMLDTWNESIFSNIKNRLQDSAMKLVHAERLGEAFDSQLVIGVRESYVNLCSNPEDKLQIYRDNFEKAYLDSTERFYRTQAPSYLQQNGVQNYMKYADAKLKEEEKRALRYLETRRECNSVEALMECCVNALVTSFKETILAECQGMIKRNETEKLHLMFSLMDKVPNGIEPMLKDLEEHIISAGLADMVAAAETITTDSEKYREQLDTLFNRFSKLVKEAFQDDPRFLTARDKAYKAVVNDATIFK
Assay: ITC titration of Cul5(N) to CBFβ alone
Type: binding
Conditions: FIG. 4D
Experimental: ITC experiments were conducted with a VP-ITC isothermal titration calorimeter (GE Healthcare) at temperatures ranging from 293.15 to 308.15 K using a reference power of 15 μcal s^−1 and a 307 rpm stirring rate. Purified protein was dialyzed for 8 h at 4° C. against 1300 volumes of ITC buffer A [0.125 M NaCl, 0.02 M HEPES (pH 7.4), 0.0002 M TCEP] or ITC buffer B [0.125 M NaCl, 0.02 M phosphate (pH 7.4), 0.0002 M TCEP]. Twenty-nine 10 μl aliquots of protein in the syringe were injected into the sample cell at time intervals ranging from 240 to 360 s. The concentration of protein in the syringe ranged from 120 to 210 μM, while the concentration of protein in the sample cell ranged from 12 to 27 μM. Errors in the thermodynamic parameters were obtained from the standard deviation resulting from average values with at least two replicates. […] As such, for all protein-into-protein experiments, the heats of injection were accounted for by subtracting the average heat of the last three injections from each data point of an experiment. All data were fit with the “One Set of Sites” curve-fitting model to determine the parameters Ka, n, and AH using the Origin software v7.0 (GE Healthcare). ΔG was calculated from ΔG=−RT ln Ka, where R=1.9872 cal K^−1 mol^−1, and T=absolute temperature (Kelvin). ΔS was calculated from the equation, ΔG=ΔH−TΔS.

B1: CBFβ: Recombinant human core-binding factor β subunit isoform 2 (protein, listed as Homo sapiens)
chain: MGHHHHHHLEVLFQGPPRVVPDQRSKFENEEFFRKLSRECEIKYTGFRDRPHEERQARFQNACRDGRSEIAFVATGTNLSLQFFPASWQGEQRQTPSREYVDLEREAGKVYLKAPMILNGVCVIWKGWIDLQRLDGMGCLEFDEERAQQEDALAQQAFEEARRRTREFEDRDRSHREEMEVRVSQLLAVTGKKTTRP
- interaction of CBFβ with Cul5(N) alone: did not interact
